{
  "source": "paper PMC5519287",
  "about": "(Cell reports, 2017)",
  "proteins": {"B1": {"name": "EGFP-S1C 4KA (domain or fragment, UniProt Q13586 342-465, looked up)", "chain": "YAPEALQKWLQLTHEVEVQYYNIKKQNAEKQLLVAKEGAEAIAAARNTLFGTFHVAHSSSLDDVDHKILTAKQALSEVTAALRERLHRWQQIEILCGFQIVNNPGIHSLVAALNIDPSWMGSTR"}},
  "molecular_target": "the molecule itself",
  "assay": "single molecule analysis",
  "data": [
    {"protein": "B1", "values": [
      {"measurement": "stoichiometry N", "value": 2}
    ]}
  ]
}
